In patent publication US20190367619A1 (ARGENX, published 2019):

Key:
[1] = molecular target: T1, human galectin-10 as coated in ELISA (soluble galectin-10; tag not given) (human, UniProt Q05315 1-142, limits assumed); test: ELISA, scFv periplasmic extract on coated soluble galectin-10, anti-Myc-HRP
T1 construct: also called coated galectin-10; Gal10
T1 sequence: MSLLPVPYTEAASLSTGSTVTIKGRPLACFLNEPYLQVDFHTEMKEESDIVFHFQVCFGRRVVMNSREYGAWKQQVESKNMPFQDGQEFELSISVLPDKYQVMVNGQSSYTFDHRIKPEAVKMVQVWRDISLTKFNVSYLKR
Procedure: In order to test the binding capacity of the scFvs to galectin-10, an ELISA binding assay was established. Briefly, a Maxisorp plate was coated with soluble galectin-10 (1 μg/mL), then blocked with casein, before being incubated with the periplasmic extract (dilution 1/5 in PBS) containing the scFv-Myc. Detection of the binder was carried out with an anti-Myc-HRP antibody. Absorbance was measured at 450 nm (reference at 620 nm) with Tecan instrument. A significant number of galectin-10 scFv binders were isolated after the second round of selection (45-87% of binders).

[2] = molecular target: T2, human galectin-10-His (recombinant human galectin-10 with TEV-cleavable N-terminal His-tag) (human); test: BLI Octet RED96, galectin-10-His on anti-Penta-His tips, scFv periplasmic extract 1/10
T2 construct: SEC-MALLS: dimer in solution; also called Gal10-His; humanGal10-His
T2 chain: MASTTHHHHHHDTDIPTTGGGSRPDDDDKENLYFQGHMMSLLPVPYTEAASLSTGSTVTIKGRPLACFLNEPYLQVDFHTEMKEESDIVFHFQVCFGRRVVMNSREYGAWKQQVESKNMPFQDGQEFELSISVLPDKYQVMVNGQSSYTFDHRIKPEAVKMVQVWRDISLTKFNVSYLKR
Procedure: Briefly, galectin-10-His tagged diluted in Kinetic Buffer was captured on Anti-Penta His 1K sensor tips until an immobilization level of 1 nm was reached. Then, diluted periplasmic extracts (1/10) were applied and association/dissociation to immobilized galectin-10-His was measured using the ForteBio Data analysis 9.0 software (subtraction of the reference Tips, 1.1 binding model). During the screening, only the dissociation (off-rate) of the scFv can be determined since the effective concentration of the scFv is unknown and can vary a lot from clone to clone. […] Therefore, taking into consideration the ELISA and BLI data, a new panel of lead scFvs was selected.

[3] = molecular target: T3, recombinant human galectin-10, TEV-cleaved (human, UniProt Q05315 1-142); test: cell-based or functional assay
T3 sequence: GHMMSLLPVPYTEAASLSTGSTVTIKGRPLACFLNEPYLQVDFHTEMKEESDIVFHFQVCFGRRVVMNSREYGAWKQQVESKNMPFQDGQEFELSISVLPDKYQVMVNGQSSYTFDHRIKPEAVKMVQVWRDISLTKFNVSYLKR

[4] = molecular target: T3, recombinant human galectin-10, …; test: cell-based or functional assay; remark: listed apart in the source
[5] = molecular target: T4, human galectin-10-His (human); test: ELISA, coated antigen 0.5 ug/mL
T4 construct: The last M of the tag may be Met1 of galectin-10; also called humanGal10-His; hGal10
T4 chain: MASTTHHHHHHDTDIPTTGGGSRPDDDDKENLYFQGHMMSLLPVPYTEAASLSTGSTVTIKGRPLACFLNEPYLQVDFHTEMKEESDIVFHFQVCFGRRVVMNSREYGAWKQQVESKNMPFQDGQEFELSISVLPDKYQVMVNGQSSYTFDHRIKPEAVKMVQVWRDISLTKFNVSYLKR
Procedure: (§1) In a similar setup to that used during the characterization of the scFv-human Fc molecules, the relative binding properties of the 7 mouse IgG1 antibodies were analyzed by ELISA. A Maxisorp plate was coated overnight with 0.5 μg/mL of human or cynomolgus WGS or YRT isoform of galectin-10-His. Then a serial dilution of each clone (from 100 nM, dilution 1/4, 12 points of dilutions) was incubated on coated galectin-10. After several washing steps, detection of the bound mouse IgG1 was carried out with an anti-mouse Fc-HRP antibody (DAMPO, Jackson ImmunoResearch, Catalog 715-035-150). Absorbance was measured at 450 nm (reference at 620 nm) with Tecan instrument. The raw data (OD values) were plotted on GraphPad Prism 7.01. The EC50 values for each antibody, calculated with a non-linear regression (log(agonist) vs. response Variable slope (four parameters)), are shown in the table below. Antibody 1D11 from the previous panel was included for comparison.

[6] = molecular target: T5, cynomolgus galectin-10-His, WGS isoform (cynomolgus); test: ELISA, coated antigen 0.5 ug/mL
T5 construct: also called cynoGal10-WGS; not shown: His tag
T5 chain: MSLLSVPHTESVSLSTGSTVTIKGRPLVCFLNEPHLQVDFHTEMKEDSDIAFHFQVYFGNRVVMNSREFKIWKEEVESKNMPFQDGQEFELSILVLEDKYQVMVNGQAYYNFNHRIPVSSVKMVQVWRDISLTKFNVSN
Procedure: as §1

[7] = molecular target: T6, cynomolgus galectin-10-His, YRT isoform (cynomolgus); test: ELISA, coated antigen 0.5 ug/mL
T6 construct: also called cynoGal10-YRT; not shown: His tag
T6 chain: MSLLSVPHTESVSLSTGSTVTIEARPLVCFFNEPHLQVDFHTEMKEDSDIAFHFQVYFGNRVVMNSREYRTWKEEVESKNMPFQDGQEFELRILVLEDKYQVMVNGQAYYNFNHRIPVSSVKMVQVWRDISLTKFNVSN
Procedure: as §1

[8] = molecular target: T4, human galectin-10-His; test: SPR Biacore T3000, mouse IgG1 captured
Procedure: (§2) The binding capacity of the mouse IgG1 antibody panel to galectin-10 was analysed on Biacore T3000. For this purpose, a capture approach was used, where a fixed concentration (1.5 μg/mL) of the mouse IgG1 clone was captured by polyclonal anti-mouse Fc antibodies immobilized on CM5 Chip to reach a binding signal around 150 RU. Then a serial dilution of human and cynomolgus WGS isoform of galectin-10-His (serial dilution, 1 over 2 from 5 μg/mL) diluted in HBS-EP pH7.4 was injected. Raw data were analysed via BIA evaluation software with a blank subtraction. The kd/KD and Rmax of each mAbs to galectin-10-His was determined using the Fit Kinetics simultaneous ka/kd/Binding with mass transfer/Local Rmax on BIA evaluation software.

[9] = molecular target: T5, cynomolgus galectin-10-His, WGS isoform; test: SPR Biacore T3000, mouse IgG1 captured
Procedure: as §2

B1: scFv 1D11 (periplasmic extract, Myc-tagged) (scFv, not shown: small tags and cut ends)
scFv: QVQLVESGGGLVQPGGSLRLSCAASGFTFDDYAMSWVRQAPGKGLEWVSGISWNGGSTYYAESMKGRFTISRDNAKNTLYLQMNSLKSEDTAVYYCAKDRNLGYRLGYPYDYWGQGTQVTVSSGGGGSGGGGSGGGGSQSVLTQPPSVSGSPGETVTISCAGTSSDVGYGNYVSWYQQLPGMAPRLLIYEVNKRASGITDRFSGSKSGNTASLTISGLQSEDEGDYYCASYRSSNNAVFGGGTHLTVL
notes: also called 1D011
ELISA binding (OD values) [1]: 3.3 OD | koff [2]: 0.0052 s⁻¹

B2: 10B02 mouse IgG1 (antibody, V domains shown)
VH: QVQLVESGGGLVQPGGSLRVSCAASGFTFSYHYMNWVRQAPGKGLEWVSGISAGGGRTYYADSVKGRFTISRDNAKNTLYLQMNSLNAEDTALYYCARVHGITNDYWGQGTQVTVSS
VL: QSALTQPPSVSGSPGKTVTISCAGTSSDVGYGNYVSWYQQLPGMAPKLLIYEVNKRASGITDRFSGSKSGNTAFLTISGLQSEDEADYYCASYRNSNNWVFGGGTHLTVL
notes: VH and VL cloned in frame with mouse IgG1 constant domains; also called 10B02 mIgG1
50% dissolution (min) of CLCs, antibody 50 uM [3]: 25.1 min | 90% dissolution (min) of CLCs, antibody 50 uM [3]: 47.4 min | 50% crystal dissolution (min), 50 uM [4]: 73.7 min | 90% crystal dissolution (min), 50 uM [4]: > 120 min | EC50 [5]: 2.28 nM | OD values [5]: 1.4 OD | EC50 [6]: 0.04 nM | OD values [6]: 3.7 OD | EC50 [7]: 0.14 nM | OD values [7]: 3.36 OD | Kd [8]: 1.5 nM | koff [8]: 0.00205 s⁻¹ | kon [8]: 1.42e+06 M⁻¹ s⁻¹ | Kd [9]: 0.9 nM | koff [9]: 0.00042 s⁻¹ | kon [9]: 494000 M⁻¹ s⁻¹

B3: 10D02 mouse IgG1 (antibody, V domains shown)
VH: EVQLVESGGGLVQPGGSLRVSCAASGFTFSSYYMSWVRQAPGKGLEWVSGIVTGGGRTHYTDSVKGRFTITRDNAKNTLYLQMNSLRPEDTALYYCARVNGVVTNYDYWGQGTQVTVSS
VL: QAVLTQPPSVSGSPGKTVTISCAGTSSDVGYGNYVSWYQQLPGMAPKLLIYDVNKRASGITDRFSGSKSGNTASLTISGLQSEDEADYFCASYRSPNNVVFGQGTHLTVL
notes: VH and VL cloned in frame with mouse IgG1 constant domains; also called 10D02 mIgG1
50% dissolution (min) of CLCs, antibody 50 uM [3]: 26.5 min | 90% dissolution (min) of CLCs, antibody 50 uM [3]: 58.6 min | EC50 [5]: 3.55 nM | OD values [5]: 2.7 OD | EC50 [6]: 0.14 nM | OD values [6]: 3.51 OD | OD values [7]: 2.63 OD | Kd [8]: 1.6 nM | koff [8]: 0.000865 s⁻¹ | kon [8]: 547000 M⁻¹ s⁻¹ | Kd [9]: 1.9 nM | koff [9]: 0.000912 s⁻¹ | kon [9]: 477000 M⁻¹ s⁻¹

B4: scFv 2C07 (periplasmic extract, Myc-tagged) (scFv, not shown: small tags and cut ends)
scFv: ELQLVESGGGLVQPGGSLRLSCAASGFTFSSYAMSWVRQAPGKGLEWVSNINSGGGSTGYADSVKGRFTISRDNAKNTLYLQMNSLKPEDMAVYYCAKYLRTYYPNAAFGMDYWGKGTLVTVSSGGGGSGGGGSGGGGSQAVLTQPSAVSVSLGQTARITCQGGNFGRYYASWYQQKPGQAPVLVIYRDSERPSGIPERFSGSSSGDTATLTISGAQAEDEADYYCQSGRSSDNAVFGGGTHLTGL
ELISA binding (OD values) [1]: 3.6 OD | PERI-ELISA binding (OD values) [1]: 3.63 OD | koff [2]: 0.0067 s⁻¹

B5: scFv 1C09 (periplasmic extract, Myc-tagged) (scFv, not shown: small tags and cut ends)
scFv: QVQLVESGPGLVKPSQTLSLTCTVSGGSITTNSYYWSWIRQPPGKGLEWMGAIAYSGSTYYSPSLKSRTSISRDTSKNQFTLHLSSVTPEDTAVYYCARRPNWYRALDAWGQGTLVTVSSGGGGSGGGGSGGGGSNFMLTQPSAVSVSLGQTARITCQGANLGRYYGIWYQQKPGQAPVQVIYGDSNRPSGIPERFSGSSSGGTATLTISGAQAEDEADYYCQSYESSTSPVFGGGTHLTVL
notes: also called 1C9
ELISA binding (OD values) [1]: 3.5 OD | koff [2]: 0.0014 s⁻¹

B6: 8H11 mouse IgG1 (antibody, V domains shown)
VH: ELQLVESGGGLVQPGGSLRLSCAASGFTFSTNYMNWVRQAPGKGLEWVSGITSGGGRTYYADSVKGRFTISRDNAKNTLYLQMNSLKPEDTALYYCARTDHAWLDAWGQGTLVTVSS
VL: QAGLTQPPSVSGTLGKTVTISCAGTSSDVGYGNYVSWYQQLPGTAPKLLIYAVSTRASGIPDRFSGSKSGNTASLTISGLLSEDEADYYCASYRSSNNYVFGGGTKLTVL
notes: VH and VL cloned in frame with mouse IgG1 constant domains; also called 8H11 mIgG1
50% dissolution (min) of CLCs, antibody 50 uM [3]: 22.4 min | 90% dissolution (min) of CLCs, antibody 50 uM [3]: 43.5 min | 50% crystal dissolution (min), 50 uM [4]: 68.3 min | 90% crystal dissolution (min), 50 uM [4]: > 120 min | EC50 [5]: 1.46 nM | OD values [5]: 1.5 OD | EC50 [6]: 0.03 nM | OD values [6]: 3.61 OD | EC50 [7]: 0.3 nM | OD values [7]: 2.97 OD | Kd [8]: 0.9 nM | koff [8]: 0.00197 s⁻¹ | kon [8]: 2.31e+06 M⁻¹ s⁻¹ | Kd [9]: 4.4 nM | koff [9]: 0.000754 s⁻¹ | kon [9]: 170000 M⁻¹ s⁻¹

B7: 11F02 mouse IgG1 (antibody, V domains shown)
VH: ELQVVESGGGLVQPGGSLRLSCAASGFTFSTNYMNWVRQAPGKGLEWVSGITSHGARTYYADSVKGRFTISRDNSKNTLYLQMNSLKPEDTALYYCARTDHASLDAWGQGTLVTVSS
VL: QTVVTQEPSLSVSPGGTVTLTCGLSSGSVTSSNYPGWYQQKPGQAPRTLIYNTNSRYSGVPNRFSGSISGNKAALTITGAQPEDEADYYCALYMGSSSYNTVFGGGTHLTVL
notes: VH and VL cloned in frame with mouse IgG1 constant domains; also called 11F02 mIgG1
50% dissolution (min) of CLCs, antibody 50 uM [3]: 25.5 min | 90% dissolution (min) of CLCs, antibody 50 uM [3]: 57.5 min | EC50 [5]: 3.08 nM | OD values [5]: 0.9 OD | EC50 [6]: 0.6 nM | OD values [6]: 3.29 OD | OD values [7]: 1.7 OD | Kd [8]: 2.2 nM | koff [8]: 0.00489 s⁻¹ | kon [8]: 2.27e+06 M⁻¹ s⁻¹ | Kd [9]: 5 nM | koff [9]: 0.00198 s⁻¹ | kon [9]: 394000 M⁻¹ s⁻¹
